We go through one molecule from paper doi:10.1101/751974 (bioRxiv, 2019).

Assay [1] deals with recombinant MCM8-9 complex, purified (human, UniProt Q9NXL9-1;Q9UJA3-1). Briefly: native gel or EMSA.
Assay [2] concerns the target MBP-MCM8-9 complex, amylose bead-bound (human, UniProt Q9NXL9-1;Q9UJA3-1). As to the kind of experiment: pull-down.

Chain of recombinant MCM8-9 complex, purified (Q9NXL9 whole entry, chain 1 of 2): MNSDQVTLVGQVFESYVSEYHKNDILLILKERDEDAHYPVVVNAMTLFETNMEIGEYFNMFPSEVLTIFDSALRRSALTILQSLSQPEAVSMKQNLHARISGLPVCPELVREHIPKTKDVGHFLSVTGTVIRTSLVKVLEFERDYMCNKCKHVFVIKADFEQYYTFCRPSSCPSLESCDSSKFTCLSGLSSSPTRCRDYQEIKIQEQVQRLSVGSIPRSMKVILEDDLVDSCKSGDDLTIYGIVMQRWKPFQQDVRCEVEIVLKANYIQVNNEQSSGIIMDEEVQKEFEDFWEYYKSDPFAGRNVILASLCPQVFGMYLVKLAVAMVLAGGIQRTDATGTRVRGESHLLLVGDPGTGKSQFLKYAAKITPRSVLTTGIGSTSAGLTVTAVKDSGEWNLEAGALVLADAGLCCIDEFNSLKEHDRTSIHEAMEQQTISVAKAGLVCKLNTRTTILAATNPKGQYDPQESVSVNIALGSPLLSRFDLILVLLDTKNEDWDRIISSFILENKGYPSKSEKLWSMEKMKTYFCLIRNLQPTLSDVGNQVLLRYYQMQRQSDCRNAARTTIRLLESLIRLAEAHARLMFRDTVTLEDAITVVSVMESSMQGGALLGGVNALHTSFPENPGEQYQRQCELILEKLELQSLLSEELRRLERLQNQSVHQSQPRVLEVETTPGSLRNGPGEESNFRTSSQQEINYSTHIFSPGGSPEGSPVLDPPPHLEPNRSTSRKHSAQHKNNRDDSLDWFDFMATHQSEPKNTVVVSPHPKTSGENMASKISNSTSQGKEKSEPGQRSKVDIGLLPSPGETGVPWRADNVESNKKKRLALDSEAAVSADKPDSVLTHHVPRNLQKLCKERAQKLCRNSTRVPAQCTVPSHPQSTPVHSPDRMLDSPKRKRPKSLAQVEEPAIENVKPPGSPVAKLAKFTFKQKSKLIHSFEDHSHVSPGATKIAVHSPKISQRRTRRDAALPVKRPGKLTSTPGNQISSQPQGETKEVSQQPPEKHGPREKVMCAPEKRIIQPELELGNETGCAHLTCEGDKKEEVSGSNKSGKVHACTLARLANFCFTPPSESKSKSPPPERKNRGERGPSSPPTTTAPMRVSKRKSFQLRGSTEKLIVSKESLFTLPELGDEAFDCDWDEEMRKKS
Chain of recombinant MCM8-9 complex, purified (Q9UJA3 whole entry, chain 2 of 2): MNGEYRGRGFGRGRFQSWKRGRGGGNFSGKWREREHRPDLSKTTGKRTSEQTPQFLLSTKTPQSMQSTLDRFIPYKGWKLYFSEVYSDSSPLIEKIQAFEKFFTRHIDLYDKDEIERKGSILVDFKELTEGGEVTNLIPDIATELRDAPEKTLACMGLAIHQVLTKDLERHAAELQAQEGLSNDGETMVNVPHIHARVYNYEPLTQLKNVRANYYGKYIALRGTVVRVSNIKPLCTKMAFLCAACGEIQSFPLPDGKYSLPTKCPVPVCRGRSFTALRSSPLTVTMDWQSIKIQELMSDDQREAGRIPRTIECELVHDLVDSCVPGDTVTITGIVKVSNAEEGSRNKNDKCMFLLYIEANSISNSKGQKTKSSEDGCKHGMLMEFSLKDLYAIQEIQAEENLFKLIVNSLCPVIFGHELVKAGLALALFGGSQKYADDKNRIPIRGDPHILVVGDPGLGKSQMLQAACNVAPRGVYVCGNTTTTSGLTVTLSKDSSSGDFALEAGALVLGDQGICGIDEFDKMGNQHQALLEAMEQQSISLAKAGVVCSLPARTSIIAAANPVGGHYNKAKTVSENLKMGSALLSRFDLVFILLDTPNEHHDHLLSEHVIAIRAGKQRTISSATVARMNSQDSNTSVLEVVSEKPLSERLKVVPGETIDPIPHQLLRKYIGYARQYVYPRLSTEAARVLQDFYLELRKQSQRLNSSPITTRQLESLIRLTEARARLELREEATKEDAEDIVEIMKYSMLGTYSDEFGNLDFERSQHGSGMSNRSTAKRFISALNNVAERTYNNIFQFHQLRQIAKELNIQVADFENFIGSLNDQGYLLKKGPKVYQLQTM
Chain of MBP-MCM8-9 complex, amylose bead-bound (Q9NXL9 whole entry, chain 1 of 2): as the sequence (Q9NXL9 whole entry, chain 1 of 2) above
Chain of MBP-MCM8-9 complex, amylose bead-bound (Q9UJA3 whole entry, chain 2 of 2): as the sequence (Q9UJA3 whole entry, chain 2 of 2) above

B1: MCM8IP-FLAG WT (natural protein)
chain: MACSLQKLFAVEEEFEDEDFLSAVEDAENRFTGSLPVNAGRLRPVSSRPQETVQAQSSRLLLLHPTAPSEALGLPDLDLCLPASSTPSADSRPSCIGAAPLRPVSTSSSWIGNQRRVTVTEVLRETARPQSSALHPLLTFESQQQQVGGFEGPEQDEFDKVLASMELEEPGMELECGVSSEAIPILPAQQREGSVLAKKARVVDLSGSCQKGPVPAIHKAGIMSAQDESLDPVIQCRTPRPPLRPGAVGHLPVPTALTVPTQQLHWEVCPQRSPVQALQPLQAARGTIQSSPQNRFPCQPFQSPSSWLSGKAHLPRPRTPNSSCSTPSRTSSGLFPRIPLQPQAPVSSIGSPVGTPKGPQGALQTPIVTNHLVQLVTAASRTPQQPTHPSTRAKTRRFPGPAGILPHQQSGRSLEDIMVSAPQTPTHGALAKFQTEIVASSQASVEEDFGRGPWLTMKSTLGLDERDPSCFLCTYSIVMVLRKAALKQLPRNKVPNMAVMIKSLTRSTMDASVVFKDPTGEMQGTVHRLLLETCQNELKPGSVLLLKQIGVFSPSLRNHYLNVTPNNLVHIYSPDSGDGSFLKPSQPFPKDSGSFQHDVAAKPEEGFRTAQNLEAEASPEEELPEADDLDGLLSELPEDFFCGTSS
With B1, the binding result in assay [1] and in assay [2] was “binds” each time.
